Data taken from paper PMC12781872.

Assays:
Assay in all cases: FRET
[1] = target: RNAP core beta' D359AzF Dylight488;sigmaA rpoC:D359 (Mycobacterium tuberculosis;Mycobacterium tuberculosis) (UniProt P9WGZ1+P9WGZ1+P9WGY9+P9WGY7+P9WGY5+P9WGI1)
[2] = target: RNAP core beta' D359AzF Dylight488;sigmaF rpoC:D359 (Mycobacterium tuberculosis;Mycobacterium tuberculosis) (UniProt P9WGZ1+P9WGZ1+P9WGY9+P9WGY7+P9WGY5+P9WGI3)
[3] = target: RNAP core beta' D359AzF Dylight488;sigmaE rpoC:D359 (Mycobacterium tuberculosis;Mycobacterium tuberculosis) (UniProt P9WGZ1+P9WGZ1+P9WGY9+P9WGY7+P9WGY5+P9WGG7)

Sequence: GTGGCCCTTGTGGGAGCGTCGGCCATAGCGGCCTCCCGGTCGGCTTGCGCTG / CAGCGCAAGCCGACCGGGAGGCCGCTATGGCCGACGCTCCCACAAGGGCCAC / UUUUUUUCCGCUAUG
- Kd [1]: 162 nM
- Kd [2]: 21.1 nM
- Kd [3]: 335 nM
